Assay results as given in US20180236024A1 (STC UNM, published 2018).

Key:
[1] = target: T1, ATG14L (UniProt Q6ZNE5 1-492); experiment: co-IP of Flag-IRGM and endogenous ATG14
T1 construct: also called endogenous ATG14

[2] = target: T2, Beclin 1 (UniProt Q14457 1-450); experiment: co-immunoprecipitation, HEK293T lysates
T2 construct: Flag-tagged overexpressed or endogenous, depending on the experiment; also called Flag-Beclin 1; Flag-Beclin-1

[3] = target: T3, NOD1 (UniProt Q9Y239 1-953); experiment: co-IP with anti-GFP, GFP-IRGM and Flag-NOD1
T3 construct: also called Flag-NOD1
T3 sequence (looked up): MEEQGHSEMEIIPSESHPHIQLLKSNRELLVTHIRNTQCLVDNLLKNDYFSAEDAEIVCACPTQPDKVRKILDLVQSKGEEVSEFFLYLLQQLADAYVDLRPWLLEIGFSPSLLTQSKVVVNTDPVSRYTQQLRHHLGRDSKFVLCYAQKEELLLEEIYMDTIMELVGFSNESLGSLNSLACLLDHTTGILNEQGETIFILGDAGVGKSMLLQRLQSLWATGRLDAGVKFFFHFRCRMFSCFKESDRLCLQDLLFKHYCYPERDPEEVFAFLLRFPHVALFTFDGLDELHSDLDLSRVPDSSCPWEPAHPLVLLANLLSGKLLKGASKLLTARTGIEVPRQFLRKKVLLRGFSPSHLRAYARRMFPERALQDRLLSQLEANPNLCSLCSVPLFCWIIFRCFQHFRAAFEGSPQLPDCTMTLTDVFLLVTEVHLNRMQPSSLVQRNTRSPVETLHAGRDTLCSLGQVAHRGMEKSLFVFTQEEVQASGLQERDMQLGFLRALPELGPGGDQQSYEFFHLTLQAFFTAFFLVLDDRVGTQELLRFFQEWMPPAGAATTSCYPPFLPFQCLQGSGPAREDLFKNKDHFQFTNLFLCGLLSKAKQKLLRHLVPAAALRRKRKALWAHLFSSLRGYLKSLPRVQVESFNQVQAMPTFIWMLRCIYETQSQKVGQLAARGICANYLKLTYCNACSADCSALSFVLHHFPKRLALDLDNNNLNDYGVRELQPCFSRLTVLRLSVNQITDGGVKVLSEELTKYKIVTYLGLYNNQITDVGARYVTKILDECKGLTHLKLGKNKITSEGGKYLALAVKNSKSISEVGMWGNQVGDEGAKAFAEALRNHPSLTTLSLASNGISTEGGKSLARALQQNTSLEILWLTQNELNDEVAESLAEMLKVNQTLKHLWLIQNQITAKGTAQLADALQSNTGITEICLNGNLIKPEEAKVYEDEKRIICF

[4] = target: T4, NOD2 (full length) (UniProt Q9HC29 1-1040); experiment: co-IP, starved HT29 cells and HEK293T cells
T4 construct: also called Flag-NOD2; endogenous NOD2

[5] = target: the molecule itself; experiment: co-IP of differently tagged IRGM, HEK293T cells

Measured: binding result

T2 sequence (Q14457 whole entry): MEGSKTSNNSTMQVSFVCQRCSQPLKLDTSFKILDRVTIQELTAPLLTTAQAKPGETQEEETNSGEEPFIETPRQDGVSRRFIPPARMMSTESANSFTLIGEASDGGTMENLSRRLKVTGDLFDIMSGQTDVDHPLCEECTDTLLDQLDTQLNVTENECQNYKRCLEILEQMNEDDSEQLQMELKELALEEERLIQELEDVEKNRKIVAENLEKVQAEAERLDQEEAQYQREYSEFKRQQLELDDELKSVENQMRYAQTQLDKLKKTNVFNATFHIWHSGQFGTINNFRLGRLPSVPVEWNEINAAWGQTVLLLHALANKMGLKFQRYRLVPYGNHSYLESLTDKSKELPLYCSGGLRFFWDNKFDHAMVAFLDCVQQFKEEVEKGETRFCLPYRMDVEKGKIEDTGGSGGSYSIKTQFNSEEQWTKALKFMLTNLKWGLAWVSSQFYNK
T1 sequence (Q6ZNE5 whole entry): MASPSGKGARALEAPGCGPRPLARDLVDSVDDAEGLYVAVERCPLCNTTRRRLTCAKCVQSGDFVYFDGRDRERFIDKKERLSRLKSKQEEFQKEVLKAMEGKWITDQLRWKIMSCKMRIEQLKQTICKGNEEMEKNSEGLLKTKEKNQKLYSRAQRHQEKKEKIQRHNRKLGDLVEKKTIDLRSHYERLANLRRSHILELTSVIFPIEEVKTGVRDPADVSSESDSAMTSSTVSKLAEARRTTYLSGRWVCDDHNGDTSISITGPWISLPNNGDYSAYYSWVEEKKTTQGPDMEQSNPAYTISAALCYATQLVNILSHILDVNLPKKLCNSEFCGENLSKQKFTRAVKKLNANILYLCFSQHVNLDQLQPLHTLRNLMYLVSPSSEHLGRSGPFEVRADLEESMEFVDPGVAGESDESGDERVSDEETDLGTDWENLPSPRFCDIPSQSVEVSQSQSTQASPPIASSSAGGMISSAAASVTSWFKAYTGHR
T4 sequence (Q9HC29 whole entry): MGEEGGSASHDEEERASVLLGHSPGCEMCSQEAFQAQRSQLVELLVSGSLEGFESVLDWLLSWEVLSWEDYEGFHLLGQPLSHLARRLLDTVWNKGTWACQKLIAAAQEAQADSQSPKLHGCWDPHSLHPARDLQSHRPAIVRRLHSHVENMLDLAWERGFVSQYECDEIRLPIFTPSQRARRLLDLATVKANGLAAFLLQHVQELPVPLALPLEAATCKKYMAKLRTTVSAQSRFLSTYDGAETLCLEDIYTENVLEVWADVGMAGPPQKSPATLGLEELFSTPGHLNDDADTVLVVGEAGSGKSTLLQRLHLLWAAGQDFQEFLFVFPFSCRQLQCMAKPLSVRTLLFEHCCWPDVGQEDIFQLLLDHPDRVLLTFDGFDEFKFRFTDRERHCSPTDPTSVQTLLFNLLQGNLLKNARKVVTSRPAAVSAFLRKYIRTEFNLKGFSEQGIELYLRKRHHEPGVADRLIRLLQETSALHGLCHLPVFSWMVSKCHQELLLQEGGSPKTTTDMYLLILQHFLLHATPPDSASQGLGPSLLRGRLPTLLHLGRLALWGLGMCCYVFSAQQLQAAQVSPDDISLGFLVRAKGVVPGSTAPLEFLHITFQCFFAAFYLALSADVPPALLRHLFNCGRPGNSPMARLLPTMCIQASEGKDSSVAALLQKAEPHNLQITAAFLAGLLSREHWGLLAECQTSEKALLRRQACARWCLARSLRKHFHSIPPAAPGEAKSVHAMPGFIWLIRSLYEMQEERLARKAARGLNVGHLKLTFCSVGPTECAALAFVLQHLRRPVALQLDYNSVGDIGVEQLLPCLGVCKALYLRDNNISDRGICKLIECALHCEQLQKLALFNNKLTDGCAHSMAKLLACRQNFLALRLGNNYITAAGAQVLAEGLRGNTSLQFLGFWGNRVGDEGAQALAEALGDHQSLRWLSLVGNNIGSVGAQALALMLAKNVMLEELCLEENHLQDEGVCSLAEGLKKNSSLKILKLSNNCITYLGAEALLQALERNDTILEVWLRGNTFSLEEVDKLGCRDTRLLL

B1: IRGM (human IRGM, isoform d) (other, UniProt A1A4Y4-4 1-202, looked up)
chain: MEAMNVEKASADGNLPEVISNIKETLKIVSRTPVNITMAGDSGNGMSTFISALRNTGHEGKASPPTELVKATQRCASYFSSHFSNVVLWDLPGTGSATTTLENYLMEMQFNRYDFIMVASAQFSMNHVMLAKTAEDMGKKFYIVWTKLDMDLSTGALPEVQLLQIRENVLENLQKERLACHEKYLKSTPENSTRPRNINLCS
notes: Stood in cell lysates as GFP-, Flag- or V5-tagged protein or as the endogenous protein, depending on the experiment; Isoform d is said to be used in all experiments; also called GFP-IRGM; GFP-IRGMd
binds: [1] | [2] | [3] | [4] | [5]
